Assay results: PMC7854983
Read-outs that look alike come from different tables or passages of the source.

Assays:
YY1 (SILAC extract) = assay: pull-down, SILAC MS
GST-tagged YY1(Δ231-290) = GST-tagged YY1(Δ231-290) (UniProt P25490); assay: SEC
YY1 del231-290 [1] = biological target: T1, YY1 del231-290 (Homo sapiens, UniProt P25490 1-414, del231-290); assay: fluorescence anisotropy
YY1 [2] = biological target: T2, YY1 (Homo sapiens, UniProt P25490 1-414); assay: fluorescence anisotropy
YY1 [3] = biological target: T2, YY1; assay: fluorescence anisotropy; remark: listed apart in the source
YY1 del231-290 [4] = biological target: T1, YY1 del231-290; assay: fluorescence anisotropy; remark: listed apart in the source
YY1 [5] = biological target: T2, YY1; assay: fluorescence anisotropy; remark: listed apart in the source
YY1 [6] = biological target: T2, YY1; assay: fluorescence anisotropy; remark: listed apart in the source
GST-YY1 = GST-YY1 (Homo sapiens, UniProt P25490 1-414); assay: fluorescence anisotropy

Q: hTEL G4 biotin probe was tested. Which binding signal (SILAC ratio G4/M4) (YY1 (SILAC extract)) did it give?
A: 2.02

Q: Which stoichiometry N (GST-tagged YY1(Δ231-290)) does the source give for “GST-tagged YY1(Δ231-290) (from UniProt P25490 1-414)” here?
A: 2

Q: cKIT G4 biotin probe was tested. Which binding signal (SILAC ratio G4/M4) (YY1 (SILAC extract)) did it give?
A: 1.92

Q: For cMYC G4 biotin probe, which binding signal (SILAC ratio G4/M4) (YY1 (SILAC extract)) is on record?
A: 1.77

Q: For TGAGGGTGAGGAGTGTGGGGA (ssDNA) [cMYC M4], which binding signal (YY1 del231-290 [1]) is on record?
A: ~10 fold lower affinity than cMYC G4

Q: What about the binding signal (YY1 [2]) of the same molecule?
A: > 10 fold lower affinity than cMYC G4

Q: AAAGGGTTAGGGTTAGGGTTAGGGAA (structured_DNA) [hTEL G4] was tested. Which Kd (YY1 [3]) did it give?
A: 82 ± 5.3 nM

Q: Does TGAGGGTGGGGAGGGTGGGGA (structured_DNA) [cMYC G4] bind (YY1 del231-290 [4])?
A: binds

Q: What about the Kd (YY1 [3]) of the same molecule?
A: 26.3 ± 2.1 nM

Q: For AAAGGGTTAGTGTTAGTGTTAGGGAA (ssDNA) [hTEL M4], which binding signal (YY1 [5]) is on record?
A: > 10 fold lower affinity than hTEL G4

Q: AGGGAGGGCTCTGTGAGGAGGG (ssDNA) [cKIT M4] was tested. Which binding signal (YY1 [6]) did it give?
A: > 10 fold lower affinity than cKIT G4

Q: For AGGGAGGGCGCTGGGAGGAGGG (structured_DNA) [cKIT G4], which Kd (YY1 [3]) is on record?
A: 26.7 ± 2.2 nM

B1: YY1 consensus motif duplex (dsDNA)
DNA 1: TCCACGGCAGCCGCCATCTTGGCT
DNA 2: AGCCAAGATGGCGGCTGCCGTGGA
Q: How did the Kd (GST-YY1) turn out when B1 was run?
A: 11.6 ± 0.8 nM
